For test [1], the target named is T1, SARS-CoV-2 S1蛋白 (ACRO Biosystems) (SARS-CoV-2, UniProt P0DTC2 16-685).
T1 construct: domain: S1
As to the kind of experiment: competition ELISA, S1 coated, HRP-hACE2-Fc as competitor. (In general: An ELISA detects its analyte on a solid surface through an enzyme-linked reagent.)

Another test addresses T2, 刺突S蛋白-鼠Fc融合蛋白 (S-mFc) (SARS-CoV-2; mouse, UniProt P0DTC2 14-1213).
T2 construct: domain: S蛋白全长区段
Nature of the test: FACS, blocking of S-mFc binding to 293T-ACE2 cells. Background: In flow cytometry, cells or beads pass a laser one at a time.

B1: 人源化抗体hS1B-30-3 (humanized antibody hS1B-30-3) (antibody, V domains shown)
VH: EVQLVESGGGLVQPGGSLRLSCAASGFTFSDAWMDWVRQAPGKGLDWVAQIRNKANSHATNYADSVKGRFTISRDDSKNSVYLQMNSLKTEDTAVYYCIRGLTGYVLDYWGQGTTVTVSS
VL: DIQMTQSPSSLSASVGDRVTITCKASQNVRTAVAWYQQKPGQSPKALIFLASNRHTGVPDRFSGSGSGTDFTLTISSLQPEDFATYFCLQHWNYPLTFGGGTKVEIKR
For orientation: EC50 means the concentration needed to bring the measured effect to its halfway point. A low value points to a more potent agent. By IC50 is commonly meant the concentration needed to halve the response being measured. A low value points to inhibition by little substance. In test [1], B1 yielded an EC50 of 0.0331 µg/mL. In the test with 刺突S蛋白-鼠Fc融合蛋白 (S-mFc), the IC50 is 0.00691 µg/mL.

The values above are taken from patent publication CN114106163A (ANYUAN MEDICINE SCIENCE AND TECH SHANGHAI LIMITED COMPANY, dated 2022).
